Laboratory results from the supplement of paper PMC9112550, “Optimization of the antimicrobial peptide Bac7 by deep mutational scanning” (BMC Biology, 2022).

Tested on: Escherichia coli TOP10
Experiment: shrunken log2 fold change of peptide-encoding DNA abundance (4.5 h post-induction vs induction); higher = less antimicrobial activity (less host growth inhibition)
Settings: time post-induction: 4.5 h; library: site-saturation at positions 5, 18, 19, 20
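Further: peptides expressed intracellularly from a pBAD plasmid library in pooled LB shake-flask culture, induced with 0.3% L-arabinose, DNA abundance read by NGS, three biological replicates, DESeq2 with apeglm shrinkage.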

Point of comparison: RRIRARPPRLPRPRPRPDHAPRP, “shrunken log2 fold change” value -0.0131. Against it:
- RRIRARPPRLPRPRPRPAAAPRP — higher, 1.11
- RRIRARPPRLPRPRPRPACGPRP — higher, 0.582
- RRIRARPPRLPRPRPRPADCPRP — higher, 0.203
- RRIRARPPRLPRPRPRPADIPRP — lower, -0.245
- RRIRARPPRLPRPRPRPADSPRP — within 0.2 log units, 0.00021
- RRIRARPPRLPRPRPRPAEDPRP — higher, 1.19
- RRIRARPPRLPRPRPRPAEIPRP — higher, 0.233
- RRIRARPPRLPRPRPRPAEKPRP — within 0.2 log units, -0.0197
- RRIRARPPRLPRPRPRPAFFPRP — higher, 0.479
- RRIRARPPRLPRPRPRPAFLPRP — higher, 0.486
- RRIRARPPRLPRPRPRPAGLPRP — higher, 0.387
- RRIRARPPRLPRPRPRPAGQPRP — within 0.2 log units, 0.143
- RRIRARPPRLPRPRPRPAHVPRP — within 0.2 log units, 0.0804
- RRIRARPPRLPRPRPRPAICPRP — higher, 0.252
- RRIRARPPRLPRPRPRPAIKPRP — higher, 0.206
- RRIRARPPRLPRPRPRPAKMPRP — higher, 0.463
- RRIRARPPRLPRPRPRPALCPRP — higher, 0.637
- RRIRARPPRLPRPRPRPAMDPRP — higher, 0.568
- RRIRARPPRLPRPRPRPANDPRP — within 0.2 log units, 0.0448
- RRIRARPPRLPRPRPRPANKPRP — within 0.2 log units, 0.0442
- RRIRARPPRLPRPRPRPAQDPRP — higher, 0.232
- RRIRARPPRLPRPRPRPAQQPRP — within 0.2 log units, 0.156
- RRIRARPPRLPRPRPRPARCPRP — higher, 0.331
- RRIRARPPRLPRPRPRPARHPRP — higher, 0.424
- RRIRARPPRLPRPRPRPARLPRP — higher, 0.582
- RRIRARPPRLPRPRPRPASHPRP — higher, 2.2
- RRIRARPPRLPRPRPRPASQPRP — higher, 0.445
- RRIRARPPRLPRPRPRPASVPRP — higher, 0.261
- RRIRARPPRLPRPRPRPATWPRP — higher, 0.37
- RRIRARPPRLPRPRPRPAWLPRP — higher, 0.597
- RRIRARPPRLPRPRPRPAWYPRP — within 0.2 log units, 0.0311
- RRIRARPPRLPRPRPRPAYFPRP — within 0.2 log units, 0.0133
- RRIRARPPRLPRPRPRPAYPPRP — within 0.2 log units, 0.106
- RRIRARPPRLPRPRPRPAYSPRP — within 0.2 log units, -0.0547
- RRIRARPPRLPRPRPRPCAYPRP — lower, -0.399
- RRIRARPPRLPRPRPRPCCVPRP — higher, 0.559
- RRIRARPPRLPRPRPRPCDMPRP — higher, 0.208
- RRIRARPPRLPRPRPRPCFLPRP — lower, -0.24
- RRIRARPPRLPRPRPRPCGEPRP — within 0.2 log units, -0.00932
- RRIRARPPRLPRPRPRPCGTPRP — higher, 0.475
- RRIRARPPRLPRPRPRPCHYPRP — within 0.2 log units, -0.00197
- RRIRARPPRLPRPRPRPCLMPRP — within 0.2 log units, -0.0504
- RRIRARPPRLPRPRPRPCMFPRP — within 0.2 log units, 0.0445
- RRIRARPPRLPRPRPRPCMIPRP — lower, -0.261
- RRIRARPPRLPRPRPRPCPCPRP — within 0.2 log units, -0.0932
- RRIRARPPRLPRPRPRPCPIPRP — lower, -0.244
- RRIRARPPRLPRPRPRPCPWPRP — within 0.2 log units, -0.0222
- RRIRARPPRLPRPRPRPCQDPRP — within 0.2 log units, -0.163
- RRIRARPPRLPRPRPRPCQEPRP — within 0.2 log units, 0.094
- RRIRARPPRLPRPRPRPCRFPRP — within 0.2 log units, 0.0212
- RRIRARPPRLPRPRPRPCRTPRP — within 0.2 log units, 0.0201
- RRIRARPPRLPRPRPRPCSFPRP — within 0.2 log units, 0.134
- RRIRARPPRLPRPRPRPCSPPRP — within 0.2 log units, -0.0746
- RRIRARPPRLPRPRPRPCSRPRP — higher, 0.21
- RRIRARPPRLPRPRPRPCTCPRP — within 0.2 log units, -0.199
- RRIRARPPRLPRPRPRPCVGPRP — higher, 2.43
- RRIRARPPRLPRPRPRPCVWPRP — higher, 0.544
- RRIRARPPRLPRPRPRPCYRPRP — within 0.2 log units, -0.141
- RRIRARPPRLPRPRPRPDAGPRP — higher, 0.94
- RRIRARPPRLPRPRPRPDCFPRP — higher, 0.715
- RRIRARPPRLPRPRPRPDCRPRP — within 0.2 log units, 0.0473
- RRIRARPPRLPRPRPRPDDSPRP — within 0.2 log units, 0.124
- RRIRARPPRLPRPRPRPDFDPRP — higher, 1.07
- RRIRARPPRLPRPRPRPDFHPRP — within 0.2 log units, -0.0502
- RRIRARPPRLPRPRPRPDFKPRP — within 0.2 log units, 0.00723
- RRIRARPPRLPRPRPRPDFLPRP — higher, 0.257
- RRIRARPPRLPRPRPRPDFSPRP — within 0.2 log units, 0.000254
- RRIRARPPRLPRPRPRPDHCPRP — within 0.2 log units, 0.063
- RRIRARPPRLPRPRPRPDICPRP — higher, 0.307
- RRIRARPPRLPRPRPRPDIMPRP — within 0.2 log units, 0.0619
- RRIRARPPRLPRPRPRPDLMPRP — higher, 0.354
- RRIRARPPRLPRPRPRPDLVPRP — higher, 0.249
- RRIRARPPRLPRPRPRPDMEPRP — within 0.2 log units, -0.0243
- RRIRARPPRLPRPRPRPDMGPRP — within 0.2 log units, -0.0014
- RRIRARPPRLPRPRPRPDMIPRP — within 0.2 log units, -0.0395
- RRIRARPPRLPRPRPRPDMWPRP — higher, 0.422
- RRIRARPPRLPRPRPRPDPGPRP — higher, 0.29
- RRIRARPPRLPRPRPRPDPSPRP — higher, 0.508
- RRIRARPPRLPRPRPRPDQGPRP — higher, 0.261
- RRIRARPPRLPRPRPRPDQHPRP — within 0.2 log units, 0.0116
- RRIRARPPRLPRPRPRPDQWPRP — higher, 0.493
- RRIRARPPRLPRPRPRPDRHPRP — within 0.2 log units, 0.0379
- RRIRARPPRLPRPRPRPDRKPRP — within 0.2 log units, 0.0521
- RRIRARPPRLPRPRPRPDRNPRP — within 0.2 log units, -0.066
- RRIRARPPRLPRPRPRPDTLPRP — within 0.2 log units, -0.0794
- RRIRARPPRLPRPRPRPDTWPRP — higher, 1.13
- RRIRARPPRLPRPRPRPDVEPRP — higher, 0.389
- RRIRARPPRLPRPRPRPDWAPRP — higher, 0.524
- RRIRARPPRLPRPRPRPDWTPRP — within 0.2 log units, 0.0425
- RRIRARPPRLPRPRPRPDYSPRP — within 0.2 log units, 0.00409
- RRIRARPPRLPRPRPRPEAPPRP — higher, 1.11
- RRIRARPPRLPRPRPRPEAWPRP — within 0.2 log units, -0.00193
- RRIRARPPRLPRPRPRPEDDPRP — higher, 0.306
- RRIRARPPRLPRPRPRPEDVPRP — higher, 0.931
- RRIRARPPRLPRPRPRPEEQPRP — higher, 1.97
- RRIRARPPRLPRPRPRPEFAPRP — higher, 0.727
- RRIRARPPRLPRPRPRPEFIPRP — within 0.2 log units, -0.189
- RRIRARPPRLPRPRPRPEGEPRP — higher, 1.39
- RRIRARPPRLPRPRPRPEGGPRP — higher, 0.872
- RRIRARPPRLPRPRPRPEGPPRP — higher, 0.577
- RRIRARPPRLPRPRPRPEHAPRP — higher, 0.564
- RRIRARPPRLPRPRPRPEHCPRP — within 0.2 log units, 0.0263
- RRIRARPPRLPRPRPRPELYPRP — higher, 0.428
- RRIRARPPRLPRPRPRPEMQPRP — higher, 1.66
- RRIRARPPRLPRPRPRPENWPRP — higher, 0.569
- RRIRARPPRLPRPRPRPEPGPRP — higher, 0.98
- RRIRARPPRLPRPRPRPEPSPRP — higher, 1.22
- RRIRARPPRLPRPRPRPEQRPRP — higher, 0.2
